In general, Km refers to the substrate concentration at which the rate is half of its maximum.

1 protein from patent US8129557B2, “Phosphonic acid diester derivative and method for producing thereof” (priority 2005, dated 2012) can be followed below.

Substrate in the series: Cc1cc(=O)oc2cc(NC(=O)CC[C@H](N)C(=O)O)ccc12
Description: Hydrolytic assay of E. coli GGT (Michaelis constant of substrate). It is filed as biochemical, Escherichia coli K-12. The following applies: other: E. coli GGT, pH 5.5, 25° C. How it is done: In the experiment, at first, Michaelis constants (Km) for 7-(γ-L-glutamylamino)-4-methylcoumarin as substrate were measured by a fluorescence method [Smith, G. D.; Ding, J. L.; Peters, T. J. Anal. Biochem. 100, 136-139 (1979)] for the hydrolytic activities of E-coli GGT and human GGT.
In the hydrolytic assay of E. coli GGT, 10 μL of a […] enzyme solution was added to a 100 mM succinic acid-sodium hydroxide buffer solution (pH 5.5) in a total volume of 1 mL containing 100 μL of 2 μM substrate aqueous solution. The product, 7-amino-4-methylcoumarin (AMC), released along with the enzyme reaction was traced continuously at 25° C. using a fluorospectrophotometer F-2000 manufactured by Hitachi Ltd. (excitation wavelength: 350 nm, emission wavelength: 440 nm). The AMC concentration was separately measured by forming a calibration curve showing the relation of the fluorescence intensity (F) and the concentration (C) using standard solutions and was calculated from the relational expression (1) of the fluorescence intensity alteration (ΔF) and concentration alteration (ΔC).
[Expression 1] ΔF/ΔC=0.11 nM^−1 (1)
The fluorescence intensity was proportional to the AMC concentration up to 2.0 μM. As a result, Km value for 7-(γ-L-glutamylamino)-4-methylcoumarin was 0.2 μM under this condition.

B1: E. coli GGT (Escherichia coli K-12) (protein)
chain 1: APPAPPVSYGVEEDVFHPVRAKQGMVASVDATATQVGVDILKEGGNAVDAAVAVGYALAVTHPQAGNLGGGGFMLIRSKNGNTTAIDFREMAPAKATRDMFLDDQGNPDSKKSLTSHLASGTPGTVAGFSLALDKYGTMPLNKVVQPAFKLARDGFIVNDALADDLKTYGSEVLPNHENSKAIFWKEGEPLKKGDTLVQANLAKSLEMIAENGPDEFYKGTIAEQIAQEMQKNGGLITKEDLAAYKAVERTPISGDYRGYQVYSMPPPSSGGIHIVQILNILENFDMKKYGFGSADAMQIMAEAEKYAYADRSEYLGDPDFVKVPWQALTNKAYAKSIADQIDINKAKPSSEIRPGKLAPYESNQ
chain 2: TTHYSVVDKDGNAVAVTYTLNTTFGTGIVAGESGILLNNQMDDFSAKPGVPNVYGLVGGDANAVGPNKRPLSSMSPTIVVKDGKTWLVTGSPGGSRIITTVLQMVVNSIDYGLNVAEATNAPRFHHQWLPDELRVEKGFSPDTLKLLEAKGQKVALKEAMGSTQSIMVGPDGELYGASDPRSVDDLTAGY
notes: was used as a purified enzyme of E-coli GGT; made in house
Regarding B1, the Km came out at 0.2 µM.
